Assay results reported in IntAct's records for PubMed 31515488.

B1: Myomegalin (Homo sapiens), Q5VU43-2 (parent)
chain: MKEICRICARELCGNQRRWIFHTASKLNLQVLLSHVLGKDVPRDGKAEFACSKCAFMLDRIYRFDTVIARIEALSIERLQKLLLEKDRLKFCIASMYRKNNDDSGAEIKAGNGTVDMSVLPDARYSALLQEDFAYSGFECWVENEDQIQEPHSCHGSEGPGNRPRRCRGCAALRVADSDYEAICKVPRKVARSISCGPSSRWSTSICTEEPALSEVGPPDLASTKVPPDGESMEEETPGSSVESLDASVQASPPQQKDEETERSAKELGKCDCCSDDQAPQHGCNHKLELALSMIKGLDYKPIQSPRGSRLPIPVKSSLPGAKPGPSMTDGVSSGFLNRSLKPLYKTPVSYPLELSDLQELWDDLCEDYLPLRVQPMTEELLKQQKLNSHETTITQQSVSDSHLAELQEKIQQTEATNKILQEKLNEMSYELKCAQESSQKQDGTIQNLKETLKSRERETEELYQVIEGQNDTMAKLREMLHQSQLGQLHSSEGTSPAQQQVALLDLQSALFCSQLEIQKLQRVVRQKERQLADAKQCVQFVEAAAHESEQQKEASWKHNQELRKALQQLQEELQNKSQQLRAWEAEKYNEIRTQEQNIQHLNHSLSHKEQLLQEFRELLQYRDNSDKTLEANEMLLEKLRQRIHDKAVALERAIDEKFSALEEKEKELRQLRLAVRERDHDLERLRDVLSSNEATMQSMESLLRAKGLEVEQLSTTCQNLQWLKEEMETKFSRWQKEQESIIQQLQTSLHDRNKEVEDLSATLLCKLGPGQSEIAEELCQRLQRKERMLQDLLSDRNKQVLEHEMEIQGLLQSVSTREQESQAAAEKLVQALMERNSELQALRQYLGGRDSLMSQAPISNQQAEVTPTGRLGKQTDQGSMQIPSRDDSTSLTAKEDVSIPRSTLGDLDTVAGLEKELSNAKEELELMAKKERESQMELSALQSMMAVQEEELQVQAADMESLTRNIQIKEDLIKDLQMQLVDPEDIPAMERLTQEVLLLREKVASVESQGQEISGNRRQQLLLMLEGLVDERSRLNEALQAERQLYSSLVKFHAHPESSERDRTLQVELEGAQVLRSRLEEVLGRSLERLNRLETLAAIGGAAAGDDTEDTSTEFTDSIEEEAAHHSHQQL
partner: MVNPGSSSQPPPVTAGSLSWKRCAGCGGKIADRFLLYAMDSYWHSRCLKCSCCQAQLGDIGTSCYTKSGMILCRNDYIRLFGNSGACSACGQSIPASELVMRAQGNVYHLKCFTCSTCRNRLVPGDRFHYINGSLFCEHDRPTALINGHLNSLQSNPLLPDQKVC
B2: Protein N-lysine methyltransferase METTL21A (Homo sapiens), Q8WXB1 (parent)
chain: MALVPYEETTEFGLQKFHKPLATFSFANHTIQIRQDWRHLGVAAVVWDAAIVLSTYLEMGAVELRGRSAVELGAGTGLVGIVAALLGAHVTITDRKVALEFLKSNVQANLPPHIQTKTVVKELTWGQNLGSFSPGEFDLILGADIIYLEETFTDLLQTLEHLCSNHSVILLACRIRYERDNNFLAMLERQFTVRKVHYDPEKDVHIYEAQKRNQKEDL
B3: H/ACA ribonucleoprotein complex subunit 3 (Homo sapiens), Q9NPE3 (parent)
chain: MFLQYYLNEQGDRVYTLKKFDPMGQQTCSAHPARFSPDDKYSRHRITIKKRFKVLMTQQPRPVL
partner: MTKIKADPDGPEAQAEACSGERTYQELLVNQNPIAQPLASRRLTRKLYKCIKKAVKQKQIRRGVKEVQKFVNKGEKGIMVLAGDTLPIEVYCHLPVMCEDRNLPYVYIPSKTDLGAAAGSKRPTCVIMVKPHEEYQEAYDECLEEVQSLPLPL
B4: G patch domain and ankyrin repeat-containing protein 1 (Homo sapiens), O95872 (parent)
chain: MSRPLLITFTPATDPSDLWKDGQQQPQPEKPESTLDGAAARAFYEALIGDESSAPDSQRSQTEPARERKRKKRRIMKAPAAEAVAEGASGRHGQGRSLEAEDKMTHRILRAAQEGDLPELRRLLEPHEAGGAGGNINARDAFWWTPLMCAARAGQGAAVSYLLGRGAAWVGVCELSGRDAAQLAEEAGFPEVARMVRESHGETRSPENRSPTPSLQYCENCDTHFQDSNHRTSTAHLLSLSQGPQPPNLPLGVPISSPGFKLLLRGGWEPGMGLGPRGEGRANPIPTVLKRDQEGLGYRSAPQPRVTHFPAWDTRAVAGRERPPRVATLSWREERRREEKDRAWERDLRTYMNLEF
partner: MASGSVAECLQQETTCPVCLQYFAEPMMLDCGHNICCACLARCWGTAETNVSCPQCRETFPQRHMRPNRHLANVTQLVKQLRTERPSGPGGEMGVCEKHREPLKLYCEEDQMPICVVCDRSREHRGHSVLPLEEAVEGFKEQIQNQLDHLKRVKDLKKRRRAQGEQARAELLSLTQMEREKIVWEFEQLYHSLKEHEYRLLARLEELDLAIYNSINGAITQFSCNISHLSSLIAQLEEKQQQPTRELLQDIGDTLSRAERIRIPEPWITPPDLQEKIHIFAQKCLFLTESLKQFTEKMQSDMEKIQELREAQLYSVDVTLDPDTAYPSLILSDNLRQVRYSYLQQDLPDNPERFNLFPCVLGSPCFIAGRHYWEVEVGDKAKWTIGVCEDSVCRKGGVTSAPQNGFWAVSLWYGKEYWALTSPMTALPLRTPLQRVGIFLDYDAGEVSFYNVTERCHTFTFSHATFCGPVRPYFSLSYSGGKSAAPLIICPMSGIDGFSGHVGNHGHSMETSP
B5: Myomegalin (Homo sapiens), Q5VU43-2 (parent)
chain: B1 chain

Variants of: B1
Details: with lmo4_human LMO4, P61968

effect of a mutation on the interaction | Variant
with no effect | N28S

Variants of: B2
Details: with FAM200C

effect of a mutation on the interaction | Variant
disrupting interaction strength | A209P

Variants of: B3
Details: with nhp2_human NHP2, Q9NX24

effect of a mutation on the interaction | Variant
with no effect | MFLQYYLNEQGHRVYTLKKFDPMGQQTCSAHPARFSPDDKYSRHRITIKKRFKVLMTQQPRPVL

Variants of: B4
Details: with tri27_human TRIM27, P14373

effect of a mutation on the interaction | Variant
disrupting interaction strength | MSRPLLITFTPATDPSDLWKDGQQQPQPEKPESTLDGAAARAFYEALIGDESSAPESQRSQTEPARERKRKKRRIMKAPAAEAVAEGASGRHGQGRSLEAEDKMTHRILRAAQEGDLPELRRLLEPHEAGGAGGNINARDAFWWTPLMCAARAGQGAAVSYLLGRGAAWVGVCELSGRDAAQLAEEAGFPEVARMVRESHGETRSPENRSPTPSLQYCENCDTHFQDSNHRTSTAHLLSLSQGPQPPNLPLGVPISSPGFKLLLRGGWEPGMGLGPRGEGRANPIPTVLKRDQEGLGYRSAPQPRVTHFPAWDTRAVAGRERPPRVATLSWREERRREEKDRAWERDLRTYMNLEF [D56E]

Variants of: B5
Details: with prp31_human PRPF31, Q8WWY3
Sequence of prp31_human PRPF31, Q8WWY3 (Q8WWY3 whole entry): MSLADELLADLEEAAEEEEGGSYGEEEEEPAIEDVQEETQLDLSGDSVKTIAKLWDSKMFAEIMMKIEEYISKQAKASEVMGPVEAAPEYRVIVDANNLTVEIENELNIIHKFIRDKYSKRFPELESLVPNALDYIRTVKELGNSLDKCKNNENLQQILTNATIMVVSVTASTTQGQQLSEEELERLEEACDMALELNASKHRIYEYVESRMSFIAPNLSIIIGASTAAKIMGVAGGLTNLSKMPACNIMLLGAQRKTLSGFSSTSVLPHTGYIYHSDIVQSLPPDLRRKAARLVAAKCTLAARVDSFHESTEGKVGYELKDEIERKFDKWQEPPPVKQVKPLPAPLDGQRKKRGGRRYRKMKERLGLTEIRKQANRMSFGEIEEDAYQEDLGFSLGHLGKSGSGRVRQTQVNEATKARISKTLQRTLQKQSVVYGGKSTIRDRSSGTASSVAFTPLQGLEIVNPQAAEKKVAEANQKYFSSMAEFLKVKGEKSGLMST

effect of a mutation on the interaction | Variant
with no effect | N28S

Variants of: B5
Details: with sdcb1_human SDCBP

effect of a mutation on the interaction | Variant
with no effect | N28S

Variants of: B5
Details: with mare1_human MAPRE1, Q15691
Sequence of mare1_human MAPRE1, Q15691 (Q15691 whole entry): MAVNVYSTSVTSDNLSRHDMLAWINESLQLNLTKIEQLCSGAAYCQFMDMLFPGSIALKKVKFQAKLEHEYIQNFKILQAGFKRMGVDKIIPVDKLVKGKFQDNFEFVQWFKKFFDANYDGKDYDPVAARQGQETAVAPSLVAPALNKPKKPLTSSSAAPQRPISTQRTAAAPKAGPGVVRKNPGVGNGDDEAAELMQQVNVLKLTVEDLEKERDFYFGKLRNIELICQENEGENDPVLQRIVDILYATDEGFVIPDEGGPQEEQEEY

effect of a mutation on the interaction | Variant
with no effect | N28S
